This sample holds only a part of the variants without activity.
B1: TPR 5TU (parent)
chain: GGAUCUUCUCGAUCUAACAAAAAAGACAAAUCUGCCACAAAGCUUGAGAGCAUCUUCGGAUGCAGAGGCGGCAGCCUUCGGUGGCGCGAUAGCGCCAACGUUCUCAACUAUGACACGCAAAACGCGUGCUCCGUUGAAUGGAGUUUAUCAUG

Variants of: B1
Assay: polymerase ribozyme fitness, log enrichment relative to wild type (log ratio); higher = more active; in vitro selection for triplet polymerase activity
In short: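 Mutant libraries of both subunits of a heterodimeric triplet polymerase ribozyme were PCR-built, transcribed, and selected once in triplicate, with frozen incubation at −7 °C and capture of gel-excised extended constructs on streptavidin beads before RT-PCR. Illumina sequencing of input and output libraries was filtered to genotypes with ≥10 input reads and ≥1 read per output. Fitness is the logarithm of genotype enrichment over wild-type enrichment, using inverse-variance-weighted replicate averages. The logarithm is base 2.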

Row | Variant | polymerase ribozyme fitness (log ratio)
1 | GGAUCUUCUCGAUCUAACAAAAAAGACAAAUCUGCCACAAAGCUUGAGAGCAUCUUCGGAUGCAGAGGCGGCAGCCUUCGGUAGCGCGAUAGCGCCAACGUUCUCAACUAUGACACCCAAAACGCGUGCUCCGUUGAAUGGAGUUUAUCAUG [G83A G117C] | -0.0387
2 | GGAUCUUCUCGAUCUAACAAAAAAGACAAAUCUGCUACAAAGCUUGAGAGCAUCUUCGGAUGCAGGGGCGGCAGCCUUCGGUGGCGUGAUAGUGCCAACGUUCUCAACUAUGACACGCAAAACGCGUGCUCCGUAGAAUGGAGUUUAUCAUG [C36U A66G C87U C93U U135A] | ≤ -4.2
3 | GGAUCUUAUCGAUCUAACAAAAAAGACAAAUCUGCCACAAAGCUUGAGAGCAUCUUCGGAUGCAGAGGCGGCAGCCUUCGGUGGCGGGAUAGCGCCAACGUUCUCAACUAUGACACGCAAAACGCGUGCUCCGUUGAAUGGAGUUUAUCAUG [C8A C87G] | ≤ -4.2
4 | GGAUCUUCUCGAUCGAACAAAAAAGACAAAUCUGCCACAAAGCUUGGGAGCAUUUUCGGAUGCAGAGGCGGCAGCCUUCGGUGGCGCGAUAGGGCUAACGUUCCCAACUAUGACACGCAAAACGCGUGCUCCGUUGAAUGGAGUUUAUCGUG [U15G A47G C54U C93G C96U U104C A150G] | -3.79
5 | GGAUCUUCUCGAUCUAACAAAAAAGACUAAUCUGCCACAAAGCUUGAGAGCAUCUUCGGAUGCAGAGGCGGCAGCCUUCGGUGGCGCGAUAGCGUCAAUGUUCUCAACUAUGACACGAAAAACGCGUGCUCCGUUGAAUGGAGUUUAUCAUG [A28U C95U C99U C118A] | ≤ -4.2
6 | GGUUAUUCUCGAUCUAACUAAAAAGACAAAUCUGCCACAAAGCUUGAGAACAUCUUUGGAUGCAGAGGCGGCAGCCUUCGGUGGCGCGAUAGCGCCAACGUUCUCAACUAUGACACGCAAAACGCGUGCUCCGUUGAAUGGAGUUUAUCAUG [A3U C5A A19U G50A C57U] | -3.13
7 | GGAUCUUCUCGAUCUAACAAAAAAGACAAAUCUGCCACAAAGCUUGAGAGCAUCUUCGGAUGCAGAGGCGGCAGCCUUCGGUGGCGCGAUAGCGCCAACGUUCUCAACUAUGACACGCAAAACGGAUGCUCCGUUGAAUGGAGUUUAUCAUG [C125G G126A] | -3.42
8 | GGAUCUUCUCGAUCUAACAAAAAAUACAAAUCUGCCACAAAGCUUGAGAGCAUCUUCGUAUGCAGAGGCGGCAGCCUUCGGUGGCGCGAUAGGGCUAACGUUCUCAACUAUGACACGCAAAACGCGUGCUCCGCUGAAUGGAGUUUAUCAUG [G25U G59U C93G C96U U134C] | ≤ -4.2
9 | GGAUCUUCUCGAUCUAACAAAAAAGACAAAUCUGCCACAAAGCUUGAGAGCAUCAUCGGAUGCAGAGGCGGCAGCCUUCGGUGGCGCGAUAGCGCCAACGUUCUCAACUAUGACACGCAAAACGCGUUCUCCGUUGAAUGGAGUUUAUCAUG [U55A G128U] | -3.12
10 | GGAUCUUCUCGAUGCAACAAAAAAGACAAAUCUGCCACAAAGCUUGAGAGCAUCUUCGGAUGCAGAGGCGGCAGCCUUCGGUGGUGCGAUAGCGCCAACGUUCUCAACUAUGACACGCAACACGCAUGCUCCGUUGAAUGGAGUUUAUCAUG [C14G U15C C85U A121C G126A] | -0.0533
11 | GGAUCUUCUCGAUCUAGCAAAAAAGACAAAUCUGCCACAAAGCUUGAGAGCAUCUUCGGAUGCAGAGGCGGCAGCCUUCGGUGGCGUGAUAGCGCCAACGUUCUCAACUAUGACACGCAAAACGCGUGCUCCGUUGAAUGGAGUUUAUCAUG [A17G C87U] | -0.0232
12 | GGAUCUUCUCGAUCUAACAAAAAAGACAAAUCUGCCACAAAGCUUGAGAGCAUCUUCGGUUGCAGAGGCGGCAGCCUUCGGUGGCGCGAUAGCGCCCACGUUCCCAACUAUGACACGCAAAACGCGUGCUCCGGUGAAUGGAGCUUAUCAUG [A60U A97C U104C U134G U144C] | -4.05
13 | GGAUCUUCUCGAUCUAACAACAAAGACAAAUCUGCCACAAAGCUUGAGAGCAUCUUCGCAUGCAGAGGCGGCAGCCUUCGGUGGCGCGAUAGCGCCAGCGUUCUCAACUAUGACACGCAAAACGGGUGCUCCGUUAAAUGGAGUUGAUCAUG [A21C G59C A98G C125G G136A U146G] | -1.19
14 | GGAUCUUCUCGAUCUAACCAAAAAGACAAAUCUGCCACAAAGCUUGAGAGCAUCGUCGGAUGCAGAGGCGGCAGCCUUCGGUGGCGCGAUAGUGCCAACGUUCUCAACUAUGACACGCAAAACGCGUGCUCCGUUUAAUGGAGUUUAUCAUG [A19C U55G C93U G136U] | -3.02
15 | GGAUCUUCUCGAUCUAAGAAAAAAGACAAAUCUGCCACAAAGCUUGAGAGCAUCUUCCGAUGCAGAGGCGGCAGCCUUCGAUGGCGCGAUAGCGCCAACGUUCUCAACUAUGACACGCAAAACGCGUGCUCCGUUGAAUGGAGUUUAUCAUG [C18G G58C G81A] | -0.953
16 | GGGUCUUCUCGAUCUAAGAAAAAAGACAAAUCUGCCACAAAGCUUGAGAGCAUCUUCGGAUGCAGAGGCGGCAGCCUUCGGUCGCGCGAUAGCGCCAACGUUCUCAACUAUGACACGCAAAACGCGUGCUCCGUUGAAUGGAGCUUAUCAUG [A3G C18G G83C U144C] | -2.47
17 | GGAUCUUCUCGAUCUAACAAAAAAGACAAAUCUGCCACAAAGCUUGAGAGCAUCAUCGGAUGCAGAGGCGGCAGCCUUCGGUGGCGCGAUAGCGCCAACGUUCUCAACUAUGACACGCAAAACGCGUGCUCCGUUGAAUGGAGUUUAACAUG [U55A U148A] | -3.84
18 | GGAUCUUCUCGAUCUAACAAAAAAGACAAAUCUGCCACAAAGCUUGAGAGUAUCUUCGGGUGCAGAGGCGGCAGCCUUCGGUGGCACGAUAGCGCCAACGUUCUCAACUAUGACACGCAAAACGCGUGCUCCGUUGAAUGGAGUUUAUCAUG [C51U A60G G86A] | -1.75
19 | GGAUCUUCUCGAUCCAACAAAAAAGACAAAUCUGCCACAAAGCUUGAGAGCAUCUGCGGAUGUAGAGGCGGCAGCCUUCGGUGGCGCGAUAGCGAAAACGUUCUCGACUAUGACACGCAAAACGCGUGCUCCGUUGAAUGGAGUUUAUCAUG [U15C U56G C63U C95A C96A A106G] | -1.5

From the RNAGym collection of RNA variant scans (doi:10.1073/pnas.2313332121)
